Assay results taken from PMC8097376 (EMBO Reports, 2021).

How the values were obtained:
[1] = biological target: T1, SARS-CoV-2 spike receptor-binding domain (RBD) (SARS-CoV-2, UniProt P0DTC2, biotinylated for BLI (site not stated); covalently coupled to MagPlex beads by EDC/sNHS in the bead assays); experiment: BLI; details: both partners purified
[2] = biological target: T1, SARS-CoV-2 spike receptor-binding …; experiment: bead-based multiplex ACE2 competi; details: both partners purified

B1: nanobody NM1226 (VHH)
VHH: QVQLVESGGGSVQPGGSLRLSCLGSGSLDYYAIGWFRQAPGKEREGVSCIASSGDRTIYADSVKGRFTISRDYGKNTVYLQMNSLKPEDTAMYYCAALQGSYYYTGFVANEYDYWGQGAPVTVSS
- Kd [1]: 3.66 nM
- IC50 [2]: 0.82 nM
